Results reported in patent publication US20200181597A1, “Composition and Application of Arginine-depleting Agents for Cancer, Obesity, Metabolic Disorders, and Related Complications and Comorbidities” (THE HONG KONG POLYTECHNIC UNIVERSITY, priority 2018, published 2020).
Values joined by “and” are separate entries in the source; they are usually repeats but may differ in a detail not shown here. Equal values may be shown once.

Assays:
[1] = system: mouse 3T3-L1 preadipocytes; test: 3T3-L1 preadipocyte differentiation (oil red O, qRT-PCR); assay type: cell-based; details: for adipogenesis and lipogenesis in 3T3-L1 cells (oil red O): added to culture medium, 6 days of differentiation
Method: FIG. 23 illustrates that arginine depletion by adding N-ABD094-rhArg (SEQ ID NO: 50) (rhArg), bovine arginase or native arginine deiminase (ADI) to the culture medium, or using arginine-free medium inhibited the differentiation of mouse 3T3-L1 preadipocytes into adipocytes. […] (*The culture medium contains 0.4 mM L-arginine and can be converted into 0.4 mM L-ornithine and 0.4 mM urea by arginase, or 0.4 mM L-citrulline by ADI.). Cells grown in culture medium without addition of arginine depleting agents or metabolic products of arginase/ADI served as the control. Lipids in cells were stained with oil red O at 6 days after exposure to specific differentiation-inducing factors added to the medium.
FIG. 24 illustrates that N-ABD094-rhArg (SEQ ID NO: 50) could suppress adipogenic and lipogenic genes in 3T3-L1 preadipocytes. Mouse 3T3-L1 preadipocytes were cultured for 6 days in medium supplemented with specific factors to induce differentiation into adipocytes (differentiated). Cells grown in medium without these factors remained undifferentiated. The medium was added with 2U/mL N-ABD094-rhArg (SEQ ID NO: 50) (rhArg). Cells grown in medium without the addition of N-ABD094-rhArg served as the control. The mRNA expression levels of several crucial (A) transcriptional regulators of adipogenesis, and (B) enzymes in lipogenic pathways were determined by real-time qRT-PCR, and expressed relative to the undifferentiated (control) group, which is set as 1. *P<0.05, one-way ANOVA followed by Fisher's LSD. Data are expressed as mean±SEM, n=3 for each group.
FIG. 25 illustrates the response of 3T3-L1 preadipocytes to various concentrations of arginine Mouse 3T3-L1 preadipocytes were cultured in arginine-free medium with or without addition of varying concentrations of L-arginine for 6 days. Cells cultured in normal arginine-containing medium supplemented with differentiation inducing factors served as the positive (+ve) control of differentiation, while cells cultured in normal arginine-containing medium without supplementation of differentiation inducing factors served as the negative (−Ve) control of differentiation. One group of cells was cultured in normal arginine-containing medium supplemented with differentiation inducing factors and treated with 5U/mL N-ABD094-rhArg (SEQ ID NO: 50) (rhArg) to inhibit differentiation. (A) Cells were stained for lipids with oil red O, and staining intensity was quantified by measuring optical density, which is expressed as the percentage against the +ve control group. (B) The mRNA levels of several crucial lipogenesis related genes are expressed relative to cells cultured in arginine-free medium, which is set as 1. Data are expressed as mean±SEM, n=3 for each group.
To test the effect of N-ABD094-rhArg (SEQ ID NO: 50) on fat cells, mouse 3T3-L1 preadipocytes were used, which are commonly employed as cell-based model for studying adipogenesis [Green and Meuth, 1974, Cell 3:127-133].

circulating arginine = details: i.p., cited from earlier work
[2] = DIO mice treated with PEGylated His-rhArg; assay type: in vivo, C57BL/6J male mice
Method: Production of PEGylated His-rhArg (SEQ ID NO: 101) is described in Example 30. C57BL/6J male mice with pre-existing diet-induced obesity (DIO) received i.p. injection of 300U PEGylated His-rhArg [SEQ ID NO: 101], or saline as vehicle control, at 7-day intervals for 5 weeks, while continuously being fed a HFD. […] Regular monitoring of plasma arginine concentrations confirmed that arginine remained at levels below the detection limit of the Biochrom 30 Amino Acid Analyzer (3 μM) throughout the study.

[3] = Arginase specific activity, DAMO colorimetric assay; assay type: biochemical; details: 37° C., pH 7.4, purified preparation
Text: The arginase activity of the fusion proteins described herein can be substantially the same, lower, or higher than the activity of the arginase polypeptide from which it is derived. One unit of arginase activity is defined as the amount of fusion protein [e.g., BHA (SEQ ID NO; 75), BAH (SEQ ID NO: 76), N-ABD-rhArg (SEQ ID NO: 49), or N-ABD094-rhArg (SEQ ID NO: 50)] or arginase [e.g., BCA (SEQ ID NO: 70)] that catalyzes the production of 1 μmol of urea per min under standard assay conditions. The specific activity of the enzyme is expressed as activity units per mg of protein. Under standard diacetylmonoxime (DAMO) assay conditions (37° C., pH 7.4), the fusion proteins can have a specific activity that is about 5%, about 10%, about 15%, about 20%, about 25% about 30%, about 35% or about 40% lower or higher than the corresponding arginase polypeptide which it incorporates. In certain embodiments, fusion proteins can have a specific activity that is about 5% to about 40%, about 10% to about 40%, about 10% to about 35%, about 10% to about 30%, about 20% to about 30%, about 20% to about 35%, about 15% to about 30%, about 15% to about 25%, or about 10% to about 20% lower or higher than the corresponding arginase polypeptide which it incorporates.
One unit of enzyme activity is defined as the amount of enzyme (BCA, BHA or BAH) that catalyzes the production of 1 μmol urea per min under standard assay conditions. Specific activity of the enzyme is expressed as activity units per mg of protein.
Briefly, a serial dilution of 0.3 mL BCA solutions together with 0.15 mL water and 720 mM arginine substrate at pH 7.4 was pre-incubated separately at 37° C. for 10 min. The enzymatic reaction was carried out by adding 0.3 mL arginine substrate to the pre-incubated enzyme solutions. […]
The urea formed from the above reaction was quantified using the DAMO direct colorimetric method described by World Health Organization (WHO). […] The absorbance at 540 nm was measured. […]

[4] = system: 4T1 breast cancer allograft; test: 4T1 breast cancer allograft study; assay type: in vivo, female nude mice; details: 500U once per week
Method: In another 4T1 breast cancer allograft study, female nude mice (5-6 weeks of age) were used. They were kept in groups of five per cage and provided food and water ad libitum. Cells of 4T1 breast cancer ([…]) were injected subcultuaneously into the right flank of the mice. […] There were one control group (n=8) and three experimental groups, including 500U PEGylated His-rhArg (SEQ ID NO: 101) (n=8), 500U N-ABD-rhArg (SEQ ID NO: 49) (n=6) and 250U N-ABD-rhArg (SEQ ID NO: 49) (n=8). Mice in the control group were injected with 1×PBS weekly. For the 500U ABD-rhArg group and the 250U ABD-rhArg group, mice were injected with 500U and 250U ABD-rhArg once a week, respectively; one group was injected with 500U PEG-rhArg once per week. The mice were sacrificed after 24 days of inoculation (i.e. 14 days after starting of experiment) because of necrosis of tumor in PBS control group. After sacrificing, the mice were dissected. Tumors were collected from the mice and measured their weight. Lungs were also collected and washed with 1×PBS. The lungs were fixed in Bouin's solution overnight and washed with 1×PBS after fixation. Lung metastatic nodules were counted.

Molecule: NC(N)=O [urea]
- adipogenesis and lipogenesis in 3T3-L1 cells (oil red O) [1]: could not inhibit

Molecule: NCCC[C@H](N)C(=O)O [L-ornithine]
- adipogenesis and lipogenesis in 3T3-L1 cells (oil red O) [1]: could not inhibit

Molecule: N=C(N)NCCC[C@H](N)C(=O)O [L-arginine]
- threshold concentration for activation of Cebpa, Pparg and Scd1 ([1]; arginine-free medium supplemented with L-arginine, 6 days): 10 to 40 µM

Molecule: NC(=O)NCCC[C@H](N)C(=O)O [L-citrulline]
- adipogenesis and lipogenesis in 3T3-L1 cells (oil red O) [1]: could not inhibit

B1: PEGylated rhArg (conjugate, UniProt P05089 1-322, looked up)
Arginase-1: MSAKSRTIGIIGAPFSKGQPRGGVEEGPTVLRKAGLLEKLKEQECDVKDYGDLPFADIPNDSPFQIVKNPRSVGKASEQLAGKVAEVKKNGRISLVLGGDHSLAIGSISGHARVHPDLGVIWVDAHTDINTPLTTTSGNLHGQPVSFLLKELKGKIPDVPGFSWVTPCISAKDIVYIGLRDVDPGEHYILKTLGIKYFSMTEVDRLGIGKVMEETLSYLLGRKKRPIHLSFDVDGLDPSFTPATGTPVVGGLTYREGLYITEEIYKTGLLSGLDIMEVNPSLGKTPEEVTRTVNTAVAITLACFGLAREGNHKPIDYLNPPK
modifications: PEGylated
- time circulating arginine below detection limit (3 μM) (circulating arginine; 1,500 U per rat (6 U/g)): 6 days

B2: native rhArg: native recombinant human arginase (Tsui et al.) (protein, UniProt P05089 1-322, looked up)
Arginase-1: MSAKSRTIGIIGAPFSKGQPRGGVEEGPTVLRKAGLLEKLKEQECDVKDYGDLPFADIPNDSPFQIVKNPRSVGKASEQLAGKVAEVKKNGRISLVLGGDHSLAIGSISGHARVHPDLGVIWVDAHTDINTPLTTTSGNLHGQPVSFLLKELKGKIPDVPGFSWVTPCISAKDIVYIGLRDVDPGEHYILKTLGIKYFSMTEVDRLGIGKVMEETLSYLLGRKKRPIHLSFDVDGLDPSFTPATGTPVVGGLTYREGLYITEEIYKTGLLSGLDIMEVNPSLGKTPEEVTRTVNTAVAITLACFGLAREGNHKPIDYLNPPK
- circulating arginine within 3 hour of injection (circulating arginine; 7,500 U/rat): ~20 µM
- time for arginine to return to basal level post-injection (circulating arginine; 7,500 U/rat): ~2 days

B3: PEGylated His-rhArg (conjugate)
chain: MHHHHHHMSAKSRTIGIIGAPFSKGQPRGGVEEGPTVLRKAGLLEKLKEQECDVKDYGDLPFADIPNDSPFQIVKNPRSVGKASEQLAGKVAEVKKNGRISLVLGGDHSLAIGSISGHARVHPDLGVIWVDAHTDINTPLTTTSGNLHGQPVSFLLKELKGKIPDVPGFSWVTPCISAKDIVYIGLRDVDPGEHYILKTLGIKYFSMTEVDRLGIGKVMEETLSYLLGRKKRPIHLSFDVDGLDPSFTPATGTPVVGGLTYREGLYITEEIYKTGLLSGLDIMEVNPSLGKTPEEVTRTVNTAVAITLACFGLAREGNHKPIDYLNPPK
modifications: PEGylated; His-rhArg, Synthesized in Lab
- bodyweight after treatment ([2]; 300U i.p. at 7-day intervals for 5 weeks, HFD continued): 30 g
- weight of liver, kidney, pancreas and heart vs vehicle-treated DIO mice ([2]; 300U weekly): significantly lower
- weight of fat pad at visceral and subcutaneous depots ([2]; 300U weekly, end of study): significantly reduced
- plasma arginine concentrations throughout the study ([2]; 300U weekly, Biochrom 30 detection limit): < 3 µM
- fasting blood glucose levels vs vehicle-treated DIO mice ([2]; two weeks after treatment): lower
- insulin sensitivity (ITT) vs vehicle-treated DIO mice ([2]; two weeks after treatment): significant increase
- Specific activity [3]: 245 U/mg
- Specific activity ([3]; listed as PEGylated His-rhArg batch 3): 189 U/mg and 213 U/mg
- growth of 4T1 solid tumor [4]: inhibited the growth of the aggressive 4T1 solid tumor significantly
- metastasis nodules from the lungs vs control group [4]: very significantly reduced
